Measurements published in US20240209456, “METHODS AND COMPOSITIONS RELATED TO CELL-CYCLE RNA's” (BETH ISRAEL DEACONESS MEDICAL CENTER, published 2024).

T1: acH2A.Z N-terminal peptide (K7 acetylated)
T1 chain: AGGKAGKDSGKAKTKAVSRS

T2: H2A.Z N-terminal peptide
T2 chain: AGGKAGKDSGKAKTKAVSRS


What was measured:
[1] = biological target: T1, acH2A.Z N-terminal peptide (K7 …); experiment: EMSA; K7 acetylation did not abrogate binding; glutaraldehyde crosslink; conditions: protein: synthetic, tags: synthetic peptide, AnaSpec, label: 5'-32P, predicted stem-loop
Description: (§1) Indeed, mutation of RM9A abolishing the predicted stem-loop structure, did change the strength and the mobility of the RNA-TIP60 complexes (Mut RM9A; FIG. 3E, lane 5).
(§2) RNA oligonucleotides (15 pmol) were end-labeled with [γ-³²P] ATP (Perkin Elmer) and T4 polynucleotide kinase (New England Biolabs). Reactions were incubated at 37° C. for 1 h and then passed through G-25 spin columns (GE Healthcare) according to the manufacturer's instructions to remove unincorporated radioactivity. Labeled samples were gel-purified on 10% polyacrylamide gels. Binding reactions were carried out in 10 μL volumes in the following buffer: 5 mM Tris pH 7.4, 5 mM MgCl₂, 1 mM DTT, 3% v/v glycerol, 100 mM NaCl. 5 μg of full length purified H2A.Z (Abcam) and TIP60 (SignalChem) proteins were incubated with 1.1 nM of ³²P-labeled ss RNAs. All reactions were assembled on ice and then incubated at room temperature for 30 min. Samples were loaded onto 6% native polyacrylamide gels (0.5×TBE) at 4° C. for 3 h at 140 V. Various concentrations (1 μM-10 mM) of H2A.Z and K7 acetylated H2A.Z peptides (AnaSpec) were incubated with a fixed amount of probe in 50 mM Tris-HCl pH 7.5, 100 mM NaCl, 0.4 mM EDTA, and 40 U/ml RNasin, 1 mM DTT, 50% glycerol in a final volume of 10 μL. Thereafter, 1 μl glutaraldehyde (0.2% final concentration) was added into the mixture and incubated at room temperature for 15 minutes. […]

H2A.Z N-terminal peptide = biological target: T2, H2A.Z N-terminal peptide; experiment: EMSA; peptide 1 uM-10 mM, glutaraldehyde crosslink; conditions: protein: synthetic; tags: synthetic peptide, AnaSpec; label: 5'-32P; predicted stem-loop
Description: as §1, §2

[2] = biological target: T3, Histone H2A.Z, full length (UniProt P0C0S5 P0C0S5:2-128); experiment: EMSA; 5 mM Tris pH 7.4, 5 mM MgCl2, 100 mM NaCl, RT; conditions: tags: Abcam; label: 5'-32P; predicted stem-loop
Description: as §1, §2

[3] = biological target: T4, TIP60 (KAT5), full length (UniProt Q92993 Q92993:1-513); experiment: as above; conditions: tags: SignalChem; label: 5'-32P; predicted stem-loop
Description: as §1, §2

[4] = biological target: T3, Histone H2A.Z, full length; experiment: EMSA; no detectable RNP; conditions: tags: Abcam; label: 5'-32P
Description: as §1
(§3) RNA oligonucleotides (15 pmol) were end-labeled with [γ-³²P] ATP (Perkin Elmer) and T4 polynucleotide kinase (New England Biolabs). Reactions were incubated at 37° C. for 1 h and then passed through G-25 spin columns (GE Healthcare) according to the manufacturer's instructions to remove unincorporated radioactivity. Labeled samples were gel-purified on 10% polyacrylamide gels. Binding reactions were carried out in 10 μL volumes in the following buffer: 5 mM Tris pH 7.4, 5 mM MgCl₂, 1 mM DTT, 3% v/v glycerol, 100 mM NaCl. 5 μg of full length purified H2A.Z (Abcam) and TIP60 (SignalChem) proteins were incubated with 1.1 nM of ³²P-labeled ss RNAs. All reactions were assembled on ice and then incubated at room temperature for 30 min. Samples were loaded onto 6% native polyacrylamide gels (0.5×TBE) at 4° C. for 3 h at 140 V. Various concentrations (1 μM-10 mM) of H2A.Z and K7 acetylated H2A.Z peptides (AnaSpec) were incubated with a fixed amount of probe in 50 mM Tris-HCl pH 7.5, 100 mM NaCl, 0.4 mM EDTA, and 40 U/ml RNasin, 1 mM DTT, 50% glycerol in a final volume of 10 μL. Thereafter, 1 μl glutaraldehyde (0.2% final concentration) was added into the mixture and incubated at room temperature for 15 minutes. Samples were loaded onto 10% native polyacrylamide gels (0.5×TBE) at 4° C. for 3 h at 170 V. All gels were dried upon fixation with Methanol and Acetic Acid and exposed to X-ray film.

[5] = biological target: T4, TIP60 (KAT5), full length; experiment: EMSA; no detectable RNP; conditions: tags: SignalChem; label: 5'-32P
Description: as §1, §3

T4 sequence (Q92993 whole entry, one chain of several): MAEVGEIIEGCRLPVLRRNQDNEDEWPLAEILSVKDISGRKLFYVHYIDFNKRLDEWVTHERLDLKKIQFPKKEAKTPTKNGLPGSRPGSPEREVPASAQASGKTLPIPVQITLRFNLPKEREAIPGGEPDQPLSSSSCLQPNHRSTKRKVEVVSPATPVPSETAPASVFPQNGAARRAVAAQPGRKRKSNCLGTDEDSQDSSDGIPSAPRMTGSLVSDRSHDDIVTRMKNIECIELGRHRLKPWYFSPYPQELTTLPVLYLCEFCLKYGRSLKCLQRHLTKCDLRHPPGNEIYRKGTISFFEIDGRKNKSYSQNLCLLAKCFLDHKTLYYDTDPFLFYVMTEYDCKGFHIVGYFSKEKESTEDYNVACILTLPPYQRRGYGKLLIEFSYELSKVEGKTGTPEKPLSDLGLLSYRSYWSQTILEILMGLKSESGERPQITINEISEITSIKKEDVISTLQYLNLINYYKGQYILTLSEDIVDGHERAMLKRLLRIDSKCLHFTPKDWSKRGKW

Row | Binder | binding result [1] | binding result (H2A.Z N-terminal peptide) | binding result [2] | binding result [3] | binding result [4] | binding result [5]
1 | GGCGUGGCGGUGGGCGCGCAGU (ssRNA) [RM9A] | binds | binds | binds | binds | – | –
2 | GCCCUUUCCCCAGCCUUAGCGA (ssRNA) [UR3] | – | – | – | – | no binding | no binding
3 | CUUUCCUCCACUCUCCCUGGGA (ssRNA) [UR2] | – | – | – | – | no binding | no binding
4 | GCGCCCUGCAGCCUGGUACGCG (ssRNA) [UR1] | – | – | – | – | no binding | no binding
